The values that follow are results of earlier work, collected in article PMC3164524.

This data set deals with pYAQL peptide. Briefly: SPR.

For orientation: Kd means a measure of binding affinity in units of concentration. For SHP-2 N-SH2 (from UniProt Q06124), the Kd is 260 nM.
